According to doi:10.1101/2025.11.10.687665:

Target: streptavidin 2 (Sav2) (Streptomyces avidinii)

streptavidin 2 (Sav2) (domain or fragment)
stoichiometry N: 4
